Consider one substance from patent US5858752.

The target in this assay is 32D c13 cells stably expressing the human Fuc-TIV (myeloid) enzyme. Briefly: adhesion of 51Cr-loaded cells to plate-captured selectin/IgM fusion protein.

As to “human E-selectin/IgM fusion protein (from UniProt P16581)”, the fold binding density relative to untransfected cells was found to be 10 fold.
